For experiment [1], the target named is Chikungunya virus-like particles (CHIKV VLP) (Chikungunya virus, UniProt Q8JUX5 810-1248; Q8JUX5 326-748). The experiment in a line: SPR.
The target in experiment [2] is Chikungunya virus E1 protein (Chikungunya virus, UniProt Q8JUX5 810-1224). Nature of the experiment: SPR.
Sequence of Chikungunya virus E1 protein (Q8JUX5 810-1224): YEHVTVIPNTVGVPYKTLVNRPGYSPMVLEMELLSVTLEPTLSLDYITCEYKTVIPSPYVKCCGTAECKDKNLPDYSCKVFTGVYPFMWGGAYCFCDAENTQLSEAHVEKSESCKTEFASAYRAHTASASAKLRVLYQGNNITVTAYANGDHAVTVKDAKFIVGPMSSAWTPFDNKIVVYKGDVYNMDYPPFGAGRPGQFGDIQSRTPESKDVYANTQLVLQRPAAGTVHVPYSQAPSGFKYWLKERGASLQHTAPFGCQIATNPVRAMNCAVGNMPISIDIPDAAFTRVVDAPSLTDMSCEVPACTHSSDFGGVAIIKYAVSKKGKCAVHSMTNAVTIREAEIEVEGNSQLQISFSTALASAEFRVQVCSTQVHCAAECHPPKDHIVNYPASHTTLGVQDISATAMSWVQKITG

Sequence of Chikungunya virus-like particles (CHIKV VLP) (Q8JUX5 810-1248, chain 1 of 2): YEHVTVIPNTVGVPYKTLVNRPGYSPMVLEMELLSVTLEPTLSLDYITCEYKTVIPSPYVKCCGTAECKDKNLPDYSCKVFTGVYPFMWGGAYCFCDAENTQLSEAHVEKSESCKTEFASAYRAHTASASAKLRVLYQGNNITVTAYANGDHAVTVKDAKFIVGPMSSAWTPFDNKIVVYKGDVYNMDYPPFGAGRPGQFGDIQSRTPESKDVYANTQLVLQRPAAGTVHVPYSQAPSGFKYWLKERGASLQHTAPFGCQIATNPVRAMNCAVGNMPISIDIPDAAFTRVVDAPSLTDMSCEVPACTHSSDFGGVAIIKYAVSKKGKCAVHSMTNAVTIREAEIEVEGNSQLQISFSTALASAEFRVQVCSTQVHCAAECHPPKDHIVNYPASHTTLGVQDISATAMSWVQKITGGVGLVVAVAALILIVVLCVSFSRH
Sequence of Chikungunya virus-like particles (CHIKV VLP) (Q8JUX5 326-748, chain 2 of 2): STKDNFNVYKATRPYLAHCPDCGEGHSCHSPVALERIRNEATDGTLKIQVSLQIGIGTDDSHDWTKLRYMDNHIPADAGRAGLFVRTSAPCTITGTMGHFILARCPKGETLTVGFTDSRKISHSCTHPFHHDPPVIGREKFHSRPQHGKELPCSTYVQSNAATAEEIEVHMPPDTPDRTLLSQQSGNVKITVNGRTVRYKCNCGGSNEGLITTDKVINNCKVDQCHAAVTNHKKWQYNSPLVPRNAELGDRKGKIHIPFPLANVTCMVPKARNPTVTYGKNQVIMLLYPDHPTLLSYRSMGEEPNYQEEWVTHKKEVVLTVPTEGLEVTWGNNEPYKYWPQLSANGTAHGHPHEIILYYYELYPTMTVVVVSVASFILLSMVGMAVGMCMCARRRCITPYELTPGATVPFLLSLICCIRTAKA

B1: CC3 (VHH)
VHH: EVQLQASGGGSVQAGGSLRLSCVTSQNLFEYYTMGWYRQVPGSQRERVALINNGGSTVAGSVEGRFTISRDHAKNSVYLQMNYLKPEDSAVYYCRAFGPADYWGQGTQVTVSS
For B1, the Kd in experiment [1] was determined as 1.2 nM; in experiment [2], 3.04 nM.

B2: CA6 (VHH)
VHH: EVQLQASGGGLVRPGGSLRLSCAASGSFFTIDTMAWYRQAPGRRRELVARQSSGRSPDYDDSVVGRFTISRDIAKSSVYLQMDSLQPEDTALYYCYQSIRPWPGSSYEAHWGQGIQVIVSS
B2: the Kd in experiment [2] worked out at 0.132 nM.
